The assay concerns the target recombinant preparation of soluble MAC-1 (UniProt P11215). Briefly: MAC-1 capture ELISA over total F(ab')2 ELISA; 5 weeks of storage, all formulations F1-F5.

As for “recombinant humanized anti-CD18 antibody (rhuMAb CD18)”, the loss of specific activity at 40°C relative to -70°C fell in the range of 10 to 15%.

The values above are taken from patent EP0999853B1.
